In publication PMC7327498, “Structural basis of semaphorin‐plexin cis interaction” (The EMBO Journal, 2020):
Values belong to the binder of their own block, whether it stands above or below them.

Tests used:
PlexA1‐4 = target: T1, PlexA1‐4 (Drosophila melanogaster, UniProt Q9V491 28-730); assay: SEC-MALS; Superdex 200 10/300, 15 mM HEPES pH 7.8, 150 mM NaCl; single proteins injected at 2.0, 1.0 and 0.5 mg/ml; equimolar mixture of Sema1b1‐2 and PlexA1‐4; conditions: both partners purified
T1 construct: Plexin A (PlexA), Drosophila melanogaster, domains 1-4 (sema, PSI1, IPT1, PSI2), residues 28–730; also called PlexA domains 1-4; source: HEK 293T, transient transfection, purified (HisTrap, SEC); for crystallisation made with kifunensine, not deglycosylated
T1 sequence (looked up): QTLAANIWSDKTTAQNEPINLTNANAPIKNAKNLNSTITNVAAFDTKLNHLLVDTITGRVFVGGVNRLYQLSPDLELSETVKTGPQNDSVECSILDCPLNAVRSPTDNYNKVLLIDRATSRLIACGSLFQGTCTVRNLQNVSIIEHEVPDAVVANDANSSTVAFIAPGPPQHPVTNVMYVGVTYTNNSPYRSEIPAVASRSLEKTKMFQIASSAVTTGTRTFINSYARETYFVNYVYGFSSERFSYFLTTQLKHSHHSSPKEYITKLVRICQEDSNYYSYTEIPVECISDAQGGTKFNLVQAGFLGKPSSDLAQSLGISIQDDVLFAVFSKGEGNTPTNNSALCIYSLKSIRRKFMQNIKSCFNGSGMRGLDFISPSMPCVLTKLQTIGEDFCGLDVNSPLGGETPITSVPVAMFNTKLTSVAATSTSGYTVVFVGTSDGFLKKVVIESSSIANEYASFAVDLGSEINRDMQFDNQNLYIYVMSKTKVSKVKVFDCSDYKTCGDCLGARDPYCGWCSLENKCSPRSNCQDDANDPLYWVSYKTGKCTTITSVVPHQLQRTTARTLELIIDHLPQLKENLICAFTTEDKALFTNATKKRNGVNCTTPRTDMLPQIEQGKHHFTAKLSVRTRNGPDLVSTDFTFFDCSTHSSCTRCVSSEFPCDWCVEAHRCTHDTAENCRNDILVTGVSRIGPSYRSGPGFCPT

Sema1b_(ecto)‐mutA = target: T2, Sema1b_(ecto)‐mutA (Drosophila melanogaster, UniProt Q7KK54 37-659, F203E | Q219R | K223E); assay: MST
T2 sequence: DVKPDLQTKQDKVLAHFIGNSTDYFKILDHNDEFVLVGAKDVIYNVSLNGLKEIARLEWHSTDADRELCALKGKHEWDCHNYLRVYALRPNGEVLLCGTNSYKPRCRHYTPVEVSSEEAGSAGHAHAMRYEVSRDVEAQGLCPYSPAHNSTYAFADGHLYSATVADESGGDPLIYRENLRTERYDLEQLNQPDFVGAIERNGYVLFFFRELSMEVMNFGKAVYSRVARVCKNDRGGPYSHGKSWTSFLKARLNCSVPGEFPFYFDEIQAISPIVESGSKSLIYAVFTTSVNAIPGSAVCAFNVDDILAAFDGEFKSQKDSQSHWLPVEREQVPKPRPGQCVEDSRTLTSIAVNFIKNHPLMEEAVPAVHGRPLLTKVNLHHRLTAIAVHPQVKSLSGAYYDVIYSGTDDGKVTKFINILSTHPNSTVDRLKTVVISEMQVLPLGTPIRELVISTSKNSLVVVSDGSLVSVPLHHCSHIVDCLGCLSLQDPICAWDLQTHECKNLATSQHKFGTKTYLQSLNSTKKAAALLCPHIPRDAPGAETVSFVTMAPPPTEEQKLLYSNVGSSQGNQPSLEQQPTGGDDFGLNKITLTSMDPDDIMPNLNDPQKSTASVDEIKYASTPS

Sema1b_(ecto)‐mutB = target: T3, Sema1b_(ecto)‐mutB (Drosophila melanogaster, UniProt Q7KK54 37-659, loop 350–367 was replaced with 18 alanine residues); assay: MST
T3 sequence: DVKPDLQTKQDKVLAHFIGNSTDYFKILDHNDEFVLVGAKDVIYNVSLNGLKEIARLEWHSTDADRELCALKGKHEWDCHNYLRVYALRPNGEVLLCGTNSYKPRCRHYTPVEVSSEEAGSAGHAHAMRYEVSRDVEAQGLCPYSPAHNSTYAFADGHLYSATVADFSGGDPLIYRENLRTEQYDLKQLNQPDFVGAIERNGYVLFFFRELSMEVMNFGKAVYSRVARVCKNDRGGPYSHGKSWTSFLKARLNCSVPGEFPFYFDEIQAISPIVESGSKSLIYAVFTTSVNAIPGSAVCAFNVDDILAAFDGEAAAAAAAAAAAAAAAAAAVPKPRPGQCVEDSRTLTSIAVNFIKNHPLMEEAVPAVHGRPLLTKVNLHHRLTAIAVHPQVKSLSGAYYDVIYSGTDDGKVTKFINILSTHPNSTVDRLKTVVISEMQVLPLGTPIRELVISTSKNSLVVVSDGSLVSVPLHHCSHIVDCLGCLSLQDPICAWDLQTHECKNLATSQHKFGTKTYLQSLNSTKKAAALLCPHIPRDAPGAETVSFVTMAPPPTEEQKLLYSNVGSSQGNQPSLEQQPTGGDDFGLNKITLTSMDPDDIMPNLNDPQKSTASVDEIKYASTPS

stoichiometry N (PlexA1‐4): 1
B1: Sema1b1‐2 (domain or fragment, Drosophila melanogaster, UniProt Q7KK54 37-602, looked up)
chain: DVKPDLQTKQDKVLAHFIGNSTDYFKILDHNDEFVLVGAKDVIYNVSLNGLKEIARLEWHSTDADRELCALKGKHEWDCHNYLRVYALRPNGEVLLCGTNSYKPRCRHYTPVEVSSEEAGSAGHAHAMRYEVSRDVEAQGLCPYSPAHNSTYAFADGHLYSATVADFSGGDPLIYRENLRTEQYDLKQLNQPDFVGAIERNGYVLFFFRELSMEVMNFGKAVYSRVARVCKNDRGGPYSHGKSWTSFLKARLNCSVPGEFPFYFDEIQAISPIVESGSKSLIYAVFTTSVNAIPGSAVCAFNVDDILAAFDGEFKSQKDSQSHWLPVEREQVPKPRPGQCVEDSRTLTSIAVNFIKNHPLMEEAVPAVHGRPLLTKVNLHHRLTAIAVHPQVKSLSGAYYDVIYSGTDDGKVTKFINILSTHPNSTVDRLKTVVISEMQVLPLGTPIRELVISTSKNSLVVVSDGSLVSVPLHHCSHIVDCLGCLSLQDPICAWDLQTHECKNLATSQHKFGTKTYLQSLNSTKKAAALLCPHIPRDAPGAETVSFVTMAPPPTEEQKLLYSNVGS
notes: Semaphorin 1b (Sema1b), Drosophila melanogaster, domains 1-2 (sema, PSI), residues 37–602; also called Sema1b sema-PSI fragment; source: HEK 293T, transient transfection, purified (HisTrap, SEC); for crystallisation made with kifunensine and treated with endoglycosidase F1

Kd (Sema1b_(ecto)‐mutA): 1240 nM
Kd (Sema1b_(ecto)‐mutB): 74 nM
B2: PlexA1‐4‐mVenus (domain or fragment)
chain: T1 sequence (looked up)
